The text below walks through data of the RNAGym collection of RNA variant scans (doi:10.1073/pnas.2313332121).

First the molecules themselves.
B1: TPR t1 (parent)
chain: GACCAAUCUGCCCUCAGAGCUCGAGAACAUCUUCGGAUGCAGAGGAGGCAGGCUUCGGUGGCGCGAUAGCGCCAACGUCCUCAACCUCCAAUGCAUCCCACCACAUGAUGAUGCCUGAAGAGCCUUGGUUUUUUG

In this data set the parent is B1. Description: polymerase ribozyme fitness, log enrichment relative to wild type (log ratio); higher = more active; in vitro selection for triplet polymerase activity. The essentials: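 Fitness compares each genotype's enrichment to that of the wild type on a logarithmic scale, averaging replicates with inverse-variance weights. The logarithm is base 2. Enrichment came from Illumina sequencing of input and output libraries after one triplicate round of in vitro selection, which included frozen incubation at −7 °C, of PCR-built, transcribed mutant libraries of each subunit of a heterodimeric triplet polymerase ribozyme. Only genotypes with ≥10 input reads and ≥1 read per output were kept.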
G10U C13G: the “polymerase ribozyme fitness (log ratio)” value came to 0.0488.
With A66C C85G U130A, the “polymerase ribozyme fitness (log ratio)” value was -3.4.
As to C56A C73U C124U, the “polymerase ribozyme fitness (log ratio)” value was 1.55.
Consider G45C U87C A108U, for which the “polymerase ribozyme fitness (log ratio)” value is -6.32.
For G44A A84U, the “polymerase ribozyme fitness (log ratio)” value was -0.594.
C12U G45U C82G C97G: the “polymerase ribozyme fitness (log ratio)” value is -5.36.
Regarding G45A C79U, the “polymerase ribozyme fitness (log ratio)” value is -1.01.
Take A90U G117C A118C: the “polymerase ribozyme fitness (log ratio)” value was -3.48.
As for C13U G47A U78C G120A C123U U125A G128A, the “polymerase ribozyme fitness (log ratio)” value was -0.365.
The same measure for A37G C56U A100U C102A U116A: -6.14.
Regarding C40A A41G C70U, the “polymerase ribozyme fitness (log ratio)” value is -1.7.
With C12G C94U the figure was -0.437.
For the variant C8G C72U, the “polymerase ribozyme fitness (log ratio)” value turned out to be 0.18.
As for C40A G120A, the “polymerase ribozyme fitness (log ratio)” value was -0.957.
Regarding G120A C124U, the “polymerase ribozyme fitness (log ratio)” value turned out to be 1.89.
As for U7A G45A C49G G71A C80U A84U C104U, the “polymerase ribozyme fitness (log ratio)” value was -4.66.
For the variant C11U G51A C56G C124A, the “polymerase ribozyme fitness (log ratio)” value is -0.733.
The same measure for G61C A121C: -0.241.
Take A27U A74U U87A: the “polymerase ribozyme fitness (log ratio)” value is -2.97.
With C49U the figure was -0.473; with C70A C123G, -0.534; with G52A A111C, 0.197.
As for U9G C11A U54G, the “polymerase ribozyme fitness (log ratio)” value is -0.122.
U7C C15A A46U G48U U130C: the “polymerase ribozyme fitness (log ratio)” value was -2.63.
Consider C20A C62G C115U G122U, for which the “polymerase ribozyme fitness (log ratio)” value is -6.79.
For the variant C15A G57U G61A U112C G113A U132C, the “polymerase ribozyme fitness (log ratio)” value is -6.11.
C3U G42C A91C: the “polymerase ribozyme fitness (log ratio)” value is -2.67.
On to U32C C40G G45A G47A U54A G61U C88G G110C A111G G117A U125A, for which the “polymerase ribozyme fitness (log ratio)” value is -7.2.
For U21G A105U G120A, the “polymerase ribozyme fitness (log ratio)” value is -2.92.
As to C11G C76U U78A, the “polymerase ribozyme fitness (log ratio)” value was 0.137.
Take G71C A121G: the “polymerase ribozyme fitness (log ratio)” value amounted to 0.226.
G10A G36A C56A A105U U112A: the “polymerase ribozyme fitness (log ratio)” value is -3.87.
For A41U C97U, the “polymerase ribozyme fitness (log ratio)” value was -2.14.
Turning to C49U U92A, the “polymerase ribozyme fitness (log ratio)” value is -3.99.
Regarding A41C C82U C94G C97U, the “polymerase ribozyme fitness (log ratio)” value was -6.09.
As to U9G C56G, the “polymerase ribozyme fitness (log ratio)” value was -0.492.
Regarding G113C U116G U130G, the “polymerase ribozyme fitness (log ratio)” value was -5.3.
Take U21C C88G A121U: the “polymerase ribozyme fitness (log ratio)” value was -0.0258.
As to A50U G63U C89U, the “polymerase ribozyme fitness (log ratio)” value was -3.86.
For U21G C34A C49U C102G C114A, the “polymerase ribozyme fitness (log ratio)” value is -8.62.
As to C79U A95C G120A, the “polymerase ribozyme fitness (log ratio)” value was -0.000389.
As to G93U A108G G120U, the “polymerase ribozyme fitness (log ratio)” value is -3.31.
With C56A C72G G77C C98U G128A the figure was -3.6.
As to A16C G69U, the “polymerase ribozyme fitness (log ratio)” value was -1.81.
On to C8A C34G G117C, for which the “polymerase ribozyme fitness (log ratio)” value is -6.88.
The same measure for C12G G71U G77A: -0.248.
On to C28G U54C A68G G110U, for which the “polymerase ribozyme fitness (log ratio)” value was -3.67.
With U38A A43C A83U C85A, the “polymerase ribozyme fitness (log ratio)” value is -5.42.
On to G45C C115U A121G G128A, for which the “polymerase ribozyme fitness (log ratio)” value is -4.67.
C49G U92A C123G: the “polymerase ribozyme fitness (log ratio)” value is -3.27.
The same measure for U9G G60U G77A U78C C98A G113C: -5.81; for C53G C72G: 0.577.
As to C34A C64U C94U, the “polymerase ribozyme fitness (log ratio)” value was -3.02.
With C4A G69U U106C C124U, the “polymerase ribozyme fitness (log ratio)” value was -1.05.
As to G35A C99U U112A, the “polymerase ribozyme fitness (log ratio)” value was -3.32.
Turning to C4A A46U C56U C72G C123G, the “polymerase ribozyme fitness (log ratio)” value is -4.32.
Regarding A5U A6U C20U G69A U81A G113A, the “polymerase ribozyme fitness (log ratio)” value was -2.02.
Turning to C12U G60C C123G, the “polymerase ribozyme fitness (log ratio)” value is 1.46.
With A43C C53A C56A C72A, the “polymerase ribozyme fitness (log ratio)” value is -2.36.
As for G58C C62U C114A G127A U130G, the “polymerase ribozyme fitness (log ratio)” value was -5.36.
With C94G A118U the figure was -0.748; with C22G G63C C80A, -5.79.
In the case of G51A C123A, the “polymerase ribozyme fitness (log ratio)” value is -1.89.
For the variant G60C G71U G120U U130G, the “polymerase ribozyme fitness (log ratio)” value was -5.39.
Regarding G60A C82A C85A G120A, the “polymerase ribozyme fitness (log ratio)” value was -0.412.
The same measure for C28G U92C C123A: -3.8; for C22G U106A: -2.37; for G77C U81G: -1.57.
Take C20A G42U G47U C53U G120U: the “polymerase ribozyme fitness (log ratio)” value is -3.98.
The same measure for A29C U54C A84U G120C: -2.27.
For A41C U59G C79U C124A, the “polymerase ribozyme fitness (log ratio)” value turned out to be 0.881.
As to G69U C88U G120U, the “polymerase ribozyme fitness (log ratio)” value turned out to be 0.599.
On to G61U C101U A119G C124G, for which the “polymerase ribozyme fitness (log ratio)” value is 1.72.
Consider C73G G117C, for which the “polymerase ribozyme fitness (log ratio)” value is -3.91.
Take A5U A91U: the “polymerase ribozyme fitness (log ratio)” value was -3.29.
A43C G63C C102A A121U C123U: the “polymerase ribozyme fitness (log ratio)” value was -5.76.
With C88A G113A C124A G135U the figure was -1.79; with G48A U54C U55A C94A A118U, -1.02.
As to A2G G35U C124A, the “polymerase ribozyme fitness (log ratio)” value was -4.09.
As for A6U C11U G47C C85U C114A, the “polymerase ribozyme fitness (log ratio)” value is -4.43.
Turning to C20A U54G C64G G113C, the “polymerase ribozyme fitness (log ratio)” value was -7.15.
For G63A C86A, the “polymerase ribozyme fitness (log ratio)” value was -2.33.
For A2C C53G C70G, the “polymerase ribozyme fitness (log ratio)” value was -5.19.
A41G C49U G110A G122A G127U: the “polymerase ribozyme fitness (log ratio)” value is -5.4.
